Source: patent US8481255B2, “Scytovirin domain 1 related polypeptides” (The United States of America, as represented by the …, priority 2005, dated 2013)

Experiments:
HIV gp120 = conditions: 100 μM sugar or 100 μg/well α-acid glycoprotein; 100 ng/well peptide
Description: (§1) Scytovirnin specifically binds to a α-1-2, α1-2, α1-6-linked tetramannoside, a substructure of oligomannose-8 and -9 found on HIV envelope glycoproteins gp120 and gp41 (Adams et al., Chem. Biol., 11(6): 875-881 (2004)). […] Briefly, a 96-well plate was prepared as described in Example 1 with glycosylated gp120 or gp41 and 100 ng/well of scytovirin or a scytovirin-derived peptide. […] Each well also contained (a) various concentrations of oligomannose-8, (b) 100 μM of glucose, mannose, galactose, xylose, or N-acytylglucosamine, or (c) 100 μg/well α-acid glycoprotein (to act as a carrier for sialic acid). The plate was then washed and visualized using anti-scytovirin polyclonal antibodies as described in Example 1.

gp41 = conditions: various concentrations of oligomannose-8
Description: as §1

HIV-1RF = experiment: XTT-tetrazolium based anti-HIV assay, acute HIV-1 infection in CEM-SS cells; assay type: cell-based; conditions: T-tropic laboratory strain HIV-1RF in CEM-SS cells; read-out: EC50 against HIV-1RF
Description: (§2) The protocol followed was the same as described in Gulakowski et al., J. Virol. Methods, 33: 87-100 (1991).
The deletion mutants were subjected to the XTT-tetrazolium based assay as described in Example 2.

CEM-SS cells = system: CEM-SS cells
Description: as §2

HIV-1 gp41 ectodomain = HIV-1 gp41 ectodomain (Human immunodeficiency virus type 1 group M subtype B, UniProt P03375); conditions: 100 ng/well gp41, absorbance at 450 nm
Description: (§3) Briefly, the 100 ng/well of either gp120 and gp41 proteins was bound to a 96-well plate, which was then rinsed with PBS containing 0.05% Tween 20 (TPBS) and blocked with BSA. Between each subsequent step, the plate was again rinsed with TPBS (x3). […] Upon addition of the horseradish peroxidase substrate buffer and color formation, the reaction was stopped by the addition of 2M H2SO4 (after 5 minutes for the gp120 plate and 15 minutes for the gp41 plate) and absorbance was measured at 450 nm for each well.

HIV-1 gp120 = HIV-1 gp120 (Human immunodeficiency virus type 1 group M subtype B, UniProt P03375); conditions: 100 ng/well gp120, absorbance at 450 nm
Description: as §3

SD1: polypeptide of SEQ ID NO: 1, derived from amino acids 1-48 of scytovirin (scytovirin domain 1) (GSGPTYSWNEANNPGGPNRCSNNKQCDGARTCSSSGFCQGTSRKPDPG)
inhibition of binding to gp120 by glucose, mannose, galactose, xylose, N-acytylglucosamine, α-acid glycoprotein with sialic acid (HIV gp120): not able to inhibit binding | inhibition of binding to gp41 by oligomannose-8 (gp41): able to inhibit the binding of SD1 to gp41 in a concentration-dependent manner | EC50 (HIV-1RF): 6.6 nM | toxicity to the CEM-SS cell line, not detected at concentrations up to (CEM-SS cells): > 10,000 nM | binding affinity to gp41 (ELISA) (HIV-1 gp41 ectodomain): approximately the same affinity | binding affinity to gp120 (ELISA) (HIV-1 gp120): approximately the same affinity

B1: scytovirin: antiviral scytovirin polypeptide, SEQ ID NO: 4 (protein, listed as Scytonema varium)
chain: GSGPTYCWNEANNPGGPNRCSNNKQCDGARTCSSSGFCQGTSRKPDPGPKGPTYCWDEAKNPGGPNRCSNSKQCDGARTCSSSGFCQGTAGHAAA
EC50 (HIV-1RF): 7.5 nM | toxicity to the CEM-SS cell line, not detected at concentrations up to (CEM-SS cells): > 10,000 nM | binding affinity to gp41 (ELISA) (HIV-1 gp41 ectodomain): approximately the same affinity | binding affinity to gp120 (ELISA) (HIV-1 gp120): approximately the same affinity
